Tested on: MS2 coat protein
Assay: apparent KD of MS2 coat protein; designed switch direction (-1 OFF switch, 1 ON switch): -1; higher = weaker reporter binding
Outline: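 Designed RNA switches were transcribed on Illumina chips by stalled E. coli RNA polymerase and titrated with SNAP-549-labelled MS2 coat protein from 0.7 or 1.5 nM, doubling to 3 µM. Step length ran from 0.8–1.5 h at the lowest concentration to 10–20 min at the highest. The apparent KD is the median over clusters for each design, from curve-fitted normalised cluster fluorescence.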

[1] = Eterna round: R95, input ligand: FMN 200 uM
[2] = Eterna round: R95, input ligand: microRNA oligo, concentration not stated
[3] = Eterna round: R95, input ligand: none
[4] = input ligand: microRNA oligo, concentration not stated

Sequence | apparent KD of MS2 coat protein [2] | apparent KD of MS2 coat protein (input ligand: FMN 200 uM) | apparent KD of MS2 coat protein (input ligand: none) | other results
AGAAGACAUGAGGAUCACCCAUGUAAGGAUAUCGAAGGUAUGAGAGGAAAGAGGUUAACGAGAAGGUACAGGUG [JR_Exclu1_Sub098] (puzzle: Exclusion 1) | 74.1 nM |  |  | apparent KD of MS2 coat protein [1]: 85.9 nM; apparent KD of MS2 coat protein [3]: 130 nM
UAAGAAUACUGAGGAUAUGCUAGUUUAUCUCAAGCAGAAGGCGGACUCAACAUGAGGAUCACCCAUGUAAGACGGGUACUAGAU [Ex NG1 #13] (Eterna round: R96, puzzle: Exclusion NG 1) |  | 319 nM | 832 nM | apparent KD of MS2 coat protein [4]: 59 nM
GGAAGGUGAGGAUAUACAAAGACGGAAACGUCAGGUGAGAGACAUGAGGAUCACCCAUGUAGAAGGCACGGAGA [AK-MS2ROC-r4-exclusion2-16.1] (Eterna round: R97, puzzle: Exclusion 2) |  | 279 nM | 74.4 nM | 
AGCUGUGGCCGAGGAUAUCUGUUCCAUAUAACCGAAAUAUAAUCGGACAUGAGGAUCACCCAUGUAGAGAAGGCGGUCUCAGCA [Eli eng2 - 100] (Eterna round: R96, puzzle: Exclusion NG 2) |  |  |  | apparent KD of MS2 coat protein [4]: 18.8 nM
GGCCCAUGAGGAUAUCAGUCUGGAUCAGACUAGAUCCUGACUGAGAAGGCACAUGAGGAUCACCCAUGUAGGCC [Eli 4x 4.30] (Eterna round: R97, puzzle: Exclusion 4) |  | 17.3 nM | 23.6 nM | 
UAAUUAAUAAGAUCAAUUAAUUAACAUGAGGAUCACCCAUGUGAGGAUAUCAGCUCGUUUAGAGCUGAGAAGGCACAAUAAUUA [ExNG3/17-C2] (Eterna round: R96, puzzle: Exclusion NG 3) |  | 72 nM | 46.8 nM | apparent KD of MS2 coat protein [4]: 41.6 nM
GCAGGAUAAGUCAGGAUAUACCUAUGGAUACAUAGGUAGAAGGGACAUGAGGAUCACCCAUGUUACUCGCCUGC [Fiskers BMX 4 - 74] (puzzle: Brourd's mod of Exclusion 4) | 13.6 nM |  |  | 
AACAGUACAGGAUAUACAUGAGGAUCACCCAUGUGAGAAUUAUGUGGCGUACCACAAAGUAGAAGGGUACUGGA [JL Maslow Revisted mod 3] (Eterna round: R96, puzzle: Exclusion 3) |  | 497 nM | 69.6 nM | apparent KD of MS2 coat protein [4]: 61.3 nM
GAUCAUGCAGGAUAUACAUGGAUCAUGAAAACAUGGAUUUCACAUGAGGAUCACCCAUGUAGAAGGGCAUGAUC [Omei Ex2 A10] (Eterna round: R97, puzzle: Exclusion 2) |  | 47.5 nM | 141 nM | 
CUUUUGUGAGGAUAUCAGUAGUAAAAAUAUAAAAUUACUACUGAGAAGGCACAUGAGGAUCACCCAUGUUCCUC [salish99_ex4_r3_020] (puzzle: Exclusion 4) | 37.2 nM |  |  | 
CUUCGUAUAGAGGAUAUAGGAUACUUCGGUGUCCUAGAAGGCUGUACAUGAGGAUCACCCAUGUACUUCAGAUC [Exclusion 6 - B - 14:b] (puzzle: Exclusion 6) | 11.9 nM |  |  | 
AAUGGGUGUGUGAGGAUAUACGAUGGCAGUUGCCAGUAGAAGGUACAUGAGGAUCACCCAUGUGUCCAAAAGUG [Aquin] (puzzle: Brourd's mod of Exclusion 4) | 11.9 nM |  |  | 
AUUAUUUCAGGAUAUGCCUUCAAAGACAUGAGGAUCACCCAUGUUUUCAGUGGCAGGAUCGCAGAAGGGAGAUAUU [EX5 C.29] (Eterna round: R97, puzzle: Exclusion 5) |  | 15.6 nM | 14.4 nM | 
ACAACUGUAGGAUAUACUUUCUGGGUAAGCCAUUAUACUGGACAUGAGGAUCACCCAUGUAGAAGGACAGAAAG [Eternabot (Original) Solution 36] (Eterna round: R97, puzzle: Exclusion 2) |  | 29.6 nM | 35.1 nM | 
AAUAACAGAGGAUAUACUAUUUUAUGUGUUUGUUGUUUUAAACAUGAGGAUCACCCAUGUAGAAGGCUGAUUGA [JMF 74] (puzzle: Exclusion 2) | 31.1 nM |  |  | 
UAUCGCAAGCGAAGAUCCCACAUGAGGAUCACCCAUGUGCUCGUCUUAUAAGGUACUGUGACGAUAGUCACGGUACC [Mat - Sensor, turn-off var - Eli Mod - D77] (Eterna round: R97, puzzle: Sensor, turn-off variant 1) |  | 33.6 nM | 24.9 nM | 
GCUAGGCAUGUCAGGAUAUGCUGUACCUUGGUACAGCAGAAGGGACAUGAGGAUCACCCAUGUGCCAACCUAGC [JL-BMX4-4.02] (Eterna round: R97, puzzle: Brourd's mod of Exclusion 4) |  | 736 nM | 55.9 nM | 
AGCGAAUAGCUAGGAUAUGAGAAUAGAUAGAGCUCAGAAGGAGCACAUGAGGAUCACCCAUGUAAAGUCUUGAGGCUGCGUGGU [Prohibition 16 - Jieux - Exclusion NG 1] (Eterna round: R96, puzzle: Exclusion NG 1) |  | 79.5 nM | 66.3 nM | apparent KD of MS2 coat protein [4]: 27.2 nM
GCGAAUAACGAGGAUAUCGUAUCGGAAACGAUACGAGAAGGUGUAACAUGAGGAUCACCCAUGUUCCUCAACGC [Fiskers Ex 6 - 7] (puzzle: Exclusion 6) | 33.1 nM |  |  | 
UUUAAUUUUUUUUUUUUACAAGCUUUUUGCUCGUCUUAUACAUGAGGAUCACCCAUGUGGGUGAAAGAUAAAUUAUC [JMF 5] (puzzle: Sensor v3, turn-off variant 2) | 19.2 nM |  |  | apparent KD of MS2 coat protein [1]: 54.9 nM; apparent KD of MS2 coat protein [3]: 37.6 nM
AGUACUAACACGAAAGUGUUAGUACAAUAAGCUUGUGAAACAUGAGGAUCACCCAUGUCCUCUUAAGCUCGUCUUAU [salish99_TOv2_r3_047] (puzzle: Sensor v3, turn-off variant 2) | 329 nM |  |  | apparent KD of MS2 coat protein [1]: 116 nM; apparent KD of MS2 coat protein [3]: 124 nM
GAAAAGGUAGGAUAUACGAAAAAAAAGGGUAGAAAUAAAACACAUGAGGAUCACCCAUGUAGAAGGACCAAAAG [salish99_ex2_r3_076] (puzzle: Exclusion 2) | 20.9 nM |  |  | apparent KD of MS2 coat protein [1]: 74.5 nM; apparent KD of MS2 coat protein [3]: 15.5 nM
AUAAUGUCAGGAUAUCAGUCGUACAGCUUCGGCUGUACGACUGAGAAGGGACAUGAGGAUCACCCAUGUGGUUA [E4/7-A1] (Eterna round: R97, puzzle: Exclusion 4) |  | 36.4 nM | 228 nM | 
UCACGGGACUGAGGAUAUACAUGAACCAUUUUUGUAGAAGGCAGAAUGUUUGAUCAUACACUAAACAUGAGGAUCACCCAUGUU [JR_ExcNG1_Sub026] (Eterna round: R96, puzzle: Exclusion NG 1) |  | 16 nM | 20.1 nM | apparent KD of MS2 coat protein [4]: 16.3 nM
GGUUAUUGCAAGGAUAUGCUUUUUUUUUAUAUUGCAGAAGGUGCAACAUGAGGAUCACCCAUGUUGGAGGGAUU [JR_E6_Sub021] (puzzle: Exclusion 6) | 28.9 nM |  |  | 
CGGUGUAACGUAGGAUAUCAACGCAACUGACGAUGAGAAGGACGACAUGAGGAUCACCCAUGUGAUUUCUCAAUAUUAUACAUC [Prohibition 86 - Jieux - Exclusion NG 1] (Eterna round: R96, puzzle: Exclusion NG 1) |  | 339 nM | 63.4 nM | apparent KD of MS2 coat protein [4]: 41.9 nM
